We go through one molecule from PMC11274412, “Characterization of Receptor Binding Affinity for Vascular Endothelial Growth Factor with Interferometric Imaging Sensor” (Biosensors, 2024).

The target in assay [1] is T1, Aflibercept (Eylea).
T1 chain: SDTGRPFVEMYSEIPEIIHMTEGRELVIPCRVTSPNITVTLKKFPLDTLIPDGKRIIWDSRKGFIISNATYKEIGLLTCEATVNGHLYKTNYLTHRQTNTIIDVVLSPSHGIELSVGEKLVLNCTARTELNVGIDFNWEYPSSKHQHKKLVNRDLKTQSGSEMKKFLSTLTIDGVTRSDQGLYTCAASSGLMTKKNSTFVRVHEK
Description: Interferometric Reflectance Imaging Sensor (IRIS); equilibrium IRIS signal on drug spots against VEGF concentration, fitted with the Langmuir isotherm. The note with it: both partners purified.

Assay [2] addresses T1, Aflibercept (Eylea). The assay is described as follows: Interferometric Reflectance Imaging Sensor (IRIS); equilibrium IRIS signal on drug spots against VEGF concentration, fitted with the Langmuir-Freundlich isotherm. The note with it: both partners purified.

B1: Recombinant human VEGF165 protein (ligand)
chain: APMAEGGGQNHHEVVKFMDVYQRSYCHPIETLVDIFQEYPDEIEYIFKPSCVPLMRCGGCCNDEGLECVPTEESNITMQIMRIKPHQGQHIGEMSFLQHNKCECRPKKDRARQENPCGPCSERRKHLFVQDPQTCKCSCKNTDSRCKARQLELNERTCRCDKPRR
modifications: disulfide-linked homodimer; N-glycosylated (HEK293 expressed); limits are the conventional mature VEGF165 (191-aa precursor minus 26-aa signal) / human IgG1 Fc (C-terminal, dimerizing …)
As to B1, in the assay with Aflibercept (Eylea) [1], the Ka turned out to be 1.05e+09 M⁻¹ and the Kd (in general, the constant that tells how readily two partners part at equilibrium) was determined as 17.5 nM. Besides, in the assay with Aflibercept (Eylea) [2], the Ka amounted to 1.5e+08 M⁻¹ and the Kd is 66 nM.
